Consider 167 variants from the RNAGym collection of RNA variant scans (doi:10.7554/elife.80360).

The chains are these.
B1: HDV Ribozyme (parent)
chain: GGCCGGCAUGGUCCCAGCCUCCUCGCUGGCGCCGGCUGGGCAACAUUCCGAGGGGACCGUCCCCUCGGUAAUGGCGAAUGGGACCCA

The variants in the data set derive from B1. Briefly: self-cleavage, relative activity (ratio to wild type); higher = more cleavage; co-transcriptional.
As to A8U G80C, the self-cleavage was 0.128.
Turning to A42G G74A, the self-cleavage was 0.0396.
To G52U A87C belongs 0.95; to G52A C66A, 1.09; to C19G U69A, 0.
On to G1A G5U, for which the self-cleavage came to 0.101.
As for C26U U47C, the self-cleavage is 1.02.
With C26U A83G, the self-cleavage is 0.776.
On to U65G A77U, for which the self-cleavage is 0.554.
In the case of G25U G81U it was 0.138; in that of C61A G82A, 0.46.
For the variant C4A A45G, the self-cleavage was determined as 0.138.
For the variant G80C C84A, the self-cleavage was 0.144.
Turning to G5C G6U, the self-cleavage worked out at 0.185.
Regarding U47A U72C, the self-cleavage came out at 0.688.
Turning to C14U U37A, the self-cleavage was 0.151.
Take C3U G6U: the self-cleavage came out at 0.0934.
In the case of C13U U79C, the self-cleavage was 0.103.
As for G31A C66A, the self-cleavage stood at 0.546.
With A51U C57G, the self-cleavage is 1.04.
Consider G5U G82U, for which the self-cleavage turned out to be 0.128.
Take U27C G54U: the self-cleavage was found to be 0.845.
To A43C U79C belongs 0.113.
With G67C A78U, the self-cleavage came to 0.225.
To G73A A83C belongs 0.198.
For C13A C30A, the self-cleavage was determined as 0.0594.
As for G11U U46C, the self-cleavage worked out at 0.135.
As for C26G G54A, the self-cleavage was 0.655.
In the case of G54C A71C it was 0.608.
As to C22A U72A, the self-cleavage is 0.0665.
For the variant C15G G76U, the self-cleavage was determined as 0.831.
Take G1U C18U: the self-cleavage was determined as 0.315.
Consider G35A A42U, for which the self-cleavage came to 0.166.
Regarding C7G C36A, the self-cleavage was determined as 0.111.
On to C7U A16C, for which the self-cleavage was 0.196.
As for C66G, the self-cleavage is 0.973.
As to U47G A70C, the self-cleavage was 1.22.
Turning to G25U G59U, the self-cleavage was found to be 0.0511.
Regarding G2C C21U, the self-cleavage amounted to 0.0615.
As to G10A A83C, the self-cleavage was found to be 0.287.
As for G40C A43G, the self-cleavage amounted to 0.136.
For the variant C7A A45C, the self-cleavage worked out at 0.0462.
As to U9C G10A, the self-cleavage is 0.985.
With C19G U20C, the self-cleavage amounted to 0.0692.
Take G53U G68U: the self-cleavage worked out at 0.703.
On to C26G G80C, for which the self-cleavage is 0.212.
In the case of C32A C61G it was 0.248; in that of C14U C84U, 0.845.
On to G5A G17C, for which the self-cleavage was 0.0594.
In the case of A43C G81A it was 0.248.
In the case of U23C G81C, the self-cleavage came out at 0.249.
On to C15G C21A, for which the self-cleavage was 0.0707.
For G17A U79G, the self-cleavage was 0.388.
With U46G C48U, the self-cleavage was found to be 0.751.
In the case of U37C U79C, the self-cleavage is 0.193.
Take C41A U79A: the self-cleavage came to 0.656.
As to U23C C30U, the self-cleavage stood at 0.755.
In the case of C24G U37C it was 0.119; in that of G50A C57G, 0.886.
For U27G C41U, the self-cleavage was 0.831.
In the case of C62U A71U, the self-cleavage was 1.05.
In the case of C44U G59A it was 0.819; in that of G31C G55C, 0.327; in that of A56G C66G, 1.01.
As to C15G G59C, the self-cleavage was determined as 0.767.
Take C30G G80U: the self-cleavage was found to be 0.0912.
In the case of C3U A42U it was 0.339; in that of U72C A87C, 0.597.
As to U60G A87U, the self-cleavage is 0.906.
Turning to C32G G52U, the self-cleavage was 0.198.
Consider A16C C21A, for which the self-cleavage was found to be 0.0437.
Take G73C A78G: the self-cleavage was 0.237.
For G5A A56U, the self-cleavage is 0.106.
In the case of A42C G67U, the self-cleavage is 0.261.
On to G34U C62U, for which the self-cleavage worked out at 0.229.
G50A U72G: the self-cleavage came out at 0.582.
U60A C64A: the self-cleavage is 0.878.
For G6C C22A, the self-cleavage worked out at 0.
With C18U C58A, the self-cleavage stood at 0.612.
Take U27A C86A: the self-cleavage was 0.733.
In the case of G25A G67A it was 0.299; in that of G10U U60G, 0.724; in that of U60C C61U, 0.718.
As to A8U U47C, the self-cleavage is 0.68.
For C44U U47G, the self-cleavage is 0.677.
With G5A G52C, the self-cleavage came to 0.253.
On to G38C C62U, for which the self-cleavage was found to be 0.197.
As for G52U C58A, the self-cleavage worked out at 0.888.
Regarding A16C U37G, the self-cleavage turned out to be 0.0923.
In the case of G11U U72C, the self-cleavage stood at 0.231.
Regarding G67C G76A, the self-cleavage was found to be 1.11.
For the variant A56G A78U, the self-cleavage worked out at 0.181.
Consider G34A C61A, for which the self-cleavage amounted to 0.302.
For the variant G74U C86A, the self-cleavage is 0.389.
Consider G59A G80U, for which the self-cleavage was found to be 0.179.
Consider U12G G38U, for which the self-cleavage was determined as 0.0755.
Regarding G10U C14U, the self-cleavage amounted to 0.672.
With C26U A43C, the self-cleavage was 0.831.
As for G29A G80U, the self-cleavage came out at 0.0283.
As to A42C G74C, the self-cleavage was found to be 0.166.
To C4A U27A belongs 0.189; to G17C C22U, 0.0639; to G34U A83U, 0.173.
For the variant U20A U69A, the self-cleavage came to 0.
Turning to C18U G54C, the self-cleavage was found to be 0.606.
C48G U69C: the self-cleavage came to 0.987.
In the case of G54A A71G it was 0.959; in that of C18A C33U, 0.0489; in that of A8C U79A, 0.506.
In the case of G80C A83C it was 0.128; in that of U37A A43U, 0.0437; in that of G28C C44A, 0.0475.
As to G1U U27A, the self-cleavage came to 0.44.
On to G5C C32G, for which the self-cleavage was 0.
For G11C C30U, the self-cleavage worked out at 0.0604.
On to C58G A71C, for which the self-cleavage turned out to be 0.802.
For C24A C57U, the self-cleavage was 0.727.
As for G31A G34C, the self-cleavage was determined as 0.0272.
As for C41A U69C, the self-cleavage came out at 0.898.
Turning to G29A G31U, the self-cleavage is 0.0272.
In the case of C19G U72A, the self-cleavage is 0.0563.
For the variant U46C C66A, the self-cleavage amounted to 0.849.
Turning to A71U A87U, the self-cleavage was determined as 0.897.
Consider C41G G82C, for which the self-cleavage came to 0.158.
In the case of G34A U47A it was 0.0997; in that of G38A C63U, 0.0923; in that of G68U A77C, 0.232.
Consider G2C U47A, for which the self-cleavage was determined as 0.0208.
With G25C U72G, the self-cleavage turned out to be 0.0639.
As to G38C A70G, the self-cleavage amounted to 0.0978.
In the case of U9G A45C, the self-cleavage amounted to 0.712.
For G10U G54C, the self-cleavage was found to be 0.831.
Turning to G11C A43U, the self-cleavage was found to be 0.0583.
In the case of G55A G76U it was 0.918; in that of C7A G68U, 0.623; in that of U20A G52U, 0.0462.
Turning to G74U A78U, the self-cleavage stood at 0.332.
Turning to U46A C58G, the self-cleavage is 0.712.
Regarding G39C G54A, the self-cleavage was 0.188.
In the case of G17U A70G, the self-cleavage is 0.674.
Turning to U47A G59U, the self-cleavage was 0.933.
In the case of G34C G76C, the self-cleavage was determined as 0.332.
In the case of U12C G25U it was 0.0369; in that of U9C C63G, 0.831; in that of A43U C85G, 0.609.
G39A G76A: the self-cleavage turned out to be 0.421.
As to G29U U37G, the self-cleavage was found to be 0.0723.
In the case of C19G G31A it was 0.0554; in that of C18A C75G, 0.133; in that of C15U U79A, 1.11.
In the case of C15U U79C it was 0.849.
In the case of G5C U9G it was 0.111; in that of C58U, 1.04; in that of C62A G76C, 1.02.
U12G A16U: the self-cleavage stood at 0.795.
In the case of U12G A16C, the self-cleavage is 0.831.
For C24G G54U, the self-cleavage came to 0.183.
Consider C33G C62U, for which the self-cleavage is 0.259.
In the case of C7A G10U it was 0.0723; in that of C66U A87C, 0.875.
Take C26G G76U: the self-cleavage stood at 0.916.
Take C33A C44A: the self-cleavage worked out at 0.
On to G59A U65A, for which the self-cleavage is 0.933.
As to G55A G82A, the self-cleavage was 0.324.
On to G59A G68A, for which the self-cleavage was 0.968.
With G6A C66A, the self-cleavage stood at 0.724.
For C26A G67C, the self-cleavage amounted to 0.985.
